This is an account of results in paper PMC4754659, “Differential regulation of taurine biosynthesis in rainbow trout and Japanese flounder” (Scientific Reports, 2016).

As a reminder, the Km is the substrate concentration at which the rate is half of its maximum. By kcat is commonly meant the number of substrate molecules converted per active site and unit of time at saturation.

Substrate in series [1]: N[C@@H](CS)C(=O)O
Description: HPLC of CSA product (OPA derivatised). The note with it: MES 62.5 mM (pH 6.1 given for tissue buffer), 0.3 mM ferrous sulfate, 62.5 μM bathocuproine disulfonate, O2 (air), 37 °C, fit at 0–4 mM, substrate inhibition above 4 mM. The format is biochemical, Paralichthys olivaceus.

Substrate in series [2]: N[C@@H](CS(=O)O)C(=O)O
Description: HPLC of hypotaurine product (OPA derivatised). The format is biochemical, Paralichthys olivaceus. Conditions: 100 mM NaH2PO4, 10 μM PLP, 37 °C, 10 min, CSA 0–15 mM, pH not given for assay (enzyme buffer pH 7.4).

Substrate in series [3]: N[C@@H](CS)C(=O)O
Description: HPLC of CSA product (OPA derivatised). Type of series: biochemical, Oncorhynchus mykiss. Conditions: MES 62.5 mM (pH 6.1 given for tissue buffer), 0.3 mM ferrous sulfate, 62.5 μM bathocuproine disulfonate, O2 (air), 37 °C, fit at 0–4 mM, substrate inhibition above 4 mM.

Substrate in series [4]: N[C@@H](CS(=O)O)C(=O)O
Description: HPLC of hypotaurine product (OPA derivatised). The format is biochemical, Oncorhynchus mykiss. Conditions: 100 mM NaH2PO4, 10 μM PLP, 37 °C, 10 min, CSA 0–15 mM, pH not given for assay (enzyme buffer pH 7.4).

Substitutions are numbered along the chain they refer to. Numbers in names are those of the source.

B1: Japanese flounder CDO (Paralichthys olivaceus) (protein)
chain: MEHTELLKPETLDELIKTLHDIFDSDCINVEEVQGVMESYESKPQEWMKYAKFDQYRYTRNLVDEGNGKFNLMILCWGEGHGSSIHDHTDSHCFMKLLQGQLKETLFEWPDCQSHGDMVQRSQRILQENKVAYINDSLGLHRVENVSHTECAVSLHLYSPPFQACQTFDQRTGHRNTVKMTFWSKYGERTPFETTVSQENN
notes: full-length ORF (201 aa printed, ORF 603 bp), N-terminal 6xHis tag, pET-28a, E. coli BL21(DE3), HisTrap and Superdex 200, iron supplemented; partly Cys-Tyr crosslinked
On to B1, for which, in series [1], the Michaelis-Menten constant (Km) is 1230 ± 150 µM and the kcat was determined as 29.36 ± 1.52 s⁻¹.

B2: Japanese flounder CSD (Paralichthys olivaceus) (protein)
chain: MNEPLLDNSEGQLFLTEAFKVIVEEVLCKGTDVKEKVCEWREPEELAALLDLELRENGEPQHQLLQRIRDVAKYSVKTSHPRFFNQQFAGVDYHSLAGRFLTESLNTNLFTYEVAPVFVLMETEVLRGLRQLVGWTEGDGIFCPGGSTSNMYAMNLARYRLFPEVKTQGLWGLPRLTVFTSQESHYSVKKGAGFLGLGTDNVILVKVDDGGRMIPSDLDEKITLTKSQGAVPFLVSCTAGTTVQGAFDPLDHIADVCEKHKLWLHVDAAWGGSVLFSKQHRHLMKGVDRANSVAWNPHKMLVAGLQCSALLLKDTTNLLKQCHCASATYLFQQDKFYDVNLDIGDKSLQCSRKVDCLKLWLMWKAVGSNGLAERVDKAFFHVRYLVEQMKKREGFHLLGQPEFVNVCFWYIPPSLRGKEGDSDYQDRLAKVAPVIKERMVKQGTMMVGYQPLANRVNFFRVIIFSPLISQRDIDFFLDEIERLGNDL
notes: full-length ORF (487 aa printed, ORF 1461 bp), N-terminal 6xHis tag, pET-28a, E. coli BL21(DE3), HisTrap and Superdex 200
Regarding B2, in series [2], the Km is 3450 ± 380 µM and the catalytic constant (kcat) worked out at 1.52 ± 0.13 s⁻¹.

B3: Japanese flounder CSD (Paralichthys olivaceus; F110Y/N108S) (protein)
chain: B2 chain with N108S, F110Y
notes: as for B2
As to B3, in series [2], the Michaelis constant (Km) was 1830 ± 170 µM and the catalytic constant (kcat) is 6.26 ± 0.20 s⁻¹.

B4: rainbow trout CDO (Oncorhynchus mykiss) (protein)
chain: MDQTELLKPETLDDLIKVLHKIFESDNINVEEVQNIMEAYDSNPQEWMKFAKFDQFRYTRNLVDEGNGKFNLMILCWGEGHGSSIHDHTDSHCFMKLLQGQLKETLFEWPDKKTCNMVQKSQRILQTNQCAYINDSFGLHRVENASHTECSASLHLYSPPFKTCQTFDQRTGHKNTVKMTFWSKFGERTPFETTVSQENN
notes: full-length ORF (200 aa printed, ORF 600 bp), N-terminal 6xHis tag, pET-28a, E. coli BL21(DE3), HisTrap and Superdex 200, iron supplemented; partly Cys-Tyr crosslinked
On to B4, for which, in series [3], the Km is 790 ± 90 µM and the catalytic constant (kcat) was determined as 16.72 ± 0.67 s⁻¹.

B5: rainbow trout CSD (Oncorhynchus mykiss) (protein)
chain: MSHLPRFWNLGWSSFLDWWSNQSVVSEQGPSPLYGQQEMNEPLLDNSEGQLFLTEAFKVIVEEVLCKGTDVKEKVCEWREPEELAALLDLELRENGEPQHQLLQRIRDVAKYSVKTNHPRFFNQLFAGVDYHALTGRFLTEALNTSQYTYEVAPVFVLMEDEVLSKLRSLVGWAEGDGIFCPGGTMSNMYAMNVARYRAFPEVKLKGMWSLPRLAVFTSQQSHYSVMKAAAFQGIGTENVFKVKVDDRGCMIPEDLGETIELAKSQGAVPFFVHATSGTTVQGAFDPLEPIADICDRQGLWMHVDAAWGGSVLFSKEHKHLMRGVERADSVTWNPHKMMLTGLQCSAILLKDTTHLLKHCHSADAKYLFQQDKFYDTSLDTGDKSIQCGRKVDCLKLWLMWKAVGSKGLEERVDRAFTHTRYLVEEMKRREGFELIGKPLFVNVCFWFIPPSLRGKENSPDYNDRLSKVAPVIKERMMKQGTMMLGYQPQGGRVNFFRMIVISPQLSHQDMTFCLNEIERLGSDL
notes: full-length ORF (525 aa, ORF 1575 bp), N-terminal 6xHis tag, pET-28a, E. coli BL21(DE3), HisTrap and Superdex 200
As for B5, in series [4], the Km was found to be 2300 ± 240 µM and the turnover number (kcat) stood at 4.72 ± 0.36 s⁻¹.

B6: rainbow trout CSD (Oncorhynchus mykiss; S146N/Y148F) (protein)
chain: B5 chain with S146N, Y148F
notes: as for B5
For the protein B6, in series [4], the Michaelis-Menten constant (Km) came out at 2730 ± 270 µM and the catalytic constant (kcat) turned out to be 1.86 ± 0.07 s⁻¹.
